Entries after “also recorded” stand apart in the source; their conditions may differ.
How the values were obtained:
[1] = test system: pSTAT3 (Y705); assay: EMAP II induced pSTAT3 western blot in RAW 264.7 macrophages; format: cell-based, mouse; conditions: macrophages; EMAP II 24 hours
Description: (§1) After appropriate treatments, protein lysates were prepared by using RIPA buffer supplemented with phosphatase and protease inhibitors (Thermo Fischer Scientific). Alpha-tubulin was used as a loading control. For nuclear and cytoplasmic fractionation, NE-PER kit from Thermo Fischer Scientific was used. Western blots were performed according to standard methods and quantified using densitometry using Image Studio Lite software from LI-COR Biosciences.
as §1, with “(Thermo Fisher” for “(Thermo Fischer”

[2] = test system: hPASMC; assay: WST-1 cell proliferation assay in hPASMC; format: cell-based, human; conditions: SMCs; EMAP II 2 μg/mL 48 hours
Description: (§2) Cell proliferation of hPASMCs was assessed using WST-1 cell proliferation reagent (Roche Diagnostic Corporation, IN) in a 96-well plate. Human PASMCs were seeded at 4200 cells/well density in 100 μl complete medium and serum starved for overnight. Cells were stimulated for 48 hours with 2 μg/mL EMAP II following the pretreatment with inhibitors. WST-1 reagent (10 μL) was added into each well and incubated for 90 minutes in a humidified atmosphere with 5% CO2 at 370 C. Absorbance was measured at 450 nm using microplate reader. Blank control well was with medium and WST-1 reagent without cultured cells. All samples were in duplicates. Cell proliferation was determined by subtracting the background reading from average of duplicate of each sample.
as §2, with “37°” for “370”, “Blank control well was with medium and WST-1 reagent without cultured cells. All samples were in duplicates.” left out

[3] = test system: pERK1/2; assay: pERK1/2 western blot time course in RAW 264.7 macrophages; format: cell-based, mouse
Description: (§3) RAW 264.7 (ATCC) mouse macrophages and Human Embryonic Kidney (HEK) 293T cells were cultured in DMEM media with 10% fetal bovine serum […] and glutamine HEPES buffer and beta-mercaptoethanol were added to the growth medium used for RAW 264.7 macrophages. Primary human pulmonary artery smooth muscle cells (hPASMC) purchased from Lonza (Walkersville, Md.) were cultured in complete growth medium containing smooth muscle growth media-2 (SmGM-2) with 10% FBS and growth factors provided as a kit by the supplier (Lonza, (Walkersville, Md.). THP-1 human monocyte cells were cultured in RPMI 1640 with 10% FBS and glutamine Cells were cultured in a humidified atmosphere with 5% CO2 at 370 C. For all studies passages 5-14 were used for RAW 264.7 and passages 5-10 were used for hPASMCs. For treatment studies, subconfluent cells plated in multi-well plates were serum starved and if required, pretreated for with inhibitors before stimulating with 2 μg/mL recombinant EMAP II.
as §1
RAW 264.7 (ATCC) mouse macrophages and HEK-293T (ATCC) cells were cultured in DMEM media with 10% (v/v) fetal bovine serum (FBS) and 2 mM glutamine HEPES buffer and beta-mercaptoethanol were added to the growth medium used for RAW 264.7 macrophages. […]
After appropriate treatments, protein lysates were prepared by using RIPA buffer supplemented with phosphatase and protease inhibitors (Thermo Fisher Scientific). […] Western blots were performed according to standard methods and quantified using densitometry using Image Studio Lite software from LI-COR Biosciences.

[4] = test system: S1P; assay: S1P, sphingosine and ceramides by HPLC/MS/MS in RAW 264.7 macrophages; format: cell-based, mouse; conditions: EMAP II 0-24 hours
Description: as §3
Collected cells were rinsed with PBS, pelleted and frozen at minus 80° Celsius. […] Sphingolipids are normalized to inorganic phosphate levels determined from the Bligh & Dyer lipid extraction method. […]
Collected cells were rinsed with PBS, pelleted. […] Sphingolipids were normalized to inorganic phosphate levels in PASMC which was determined from the Bligh & Dyer lipid extraction method. […]

[5] = test system: Il6; assay: Il6 transcripts qRT-PCR in hPASMC; format: cell-based, human; conditions: SMCs, EMAP II time course
Description: (§4) RAW 264.7 (ATCC) mouse macrophages and Human Embryonic Kidney (HEK) 293T cells were cultured in DMEM media with 10% fetal bovine serum […] and glutamine HEPES buffer and beta-mercaptoethanol were added to the growth medium used for RAW 264.7 macrophages. […]
(§5) Total RNA was extracted with TriZol using standard RNA extraction protocol and reverse transcribed with SuperScript III Reverse Transcriptase (Thermo Fischer Scientific). SphK1, Tnf, Il6, EGR1, Gapdh, Hprt1 transcripts were quantified using PrimePCR SYBR Green assays from BioRad. […]
(§6) Total RNA was extracted with TriZol using standard RNA extraction protocol and reverse transcribed with SuperScript III Reverse Transcriptase (Thermo Fisher Scientific). SPHK1, Tnf, Il6, EGR1, Gapdh, Hprt1 transcripts were quantified using PrimePCR SYBR Green assays from BioRad.

[6] = test system: SphK1; assay: SphK1 transcripts qRT-PCR in hPASMC; format: cell-based, human; conditions: SMCs
Description: as §4, §5, §6

B1: EMAP II: 6x-His tagged recombinant EMAP II, cleaved C-terminal peptide of AIMP1 (SEQ ID NO: 2), pro-inflammatory cytokine (protein)
chain: IAGSADSKPIDVSRLDLRIGCIITARKHPDADSLYVEEVDVGEIAPRTVVSGLVNHVPLEQMQNRMVILLCNLKPAKMRGVLSQAMVMCASSPEKIEILAPPNGSVPGDRITFDAFPGEPDKELNPKKKIWEQIQPDLHTNDECVATYKGVPFEVKGKGVCRAQTMSNSGIK
STAT3 activation (pSTAT3) [1]: induced STAT3 activation | cell proliferation (WST1) [2]: promotes cell proliferation | earliest time of pERK1/2 activation [3]: 5 minutes | time of pERK1/2 peak [3]: 1 hour | ERK1/2 phosphorylation (pERK1/2 normalized to ERK1/2) ([3]; 24-hour time course): induced ERK1/2 phosphorylation; also recorded: bi-modal activation; also recorded: bimodal activation | cellular sphingosine and ceramide levels [4]: bi-modal depreciation; also recorded: decreasing levels over time | cellular S1P levels ([4]; normalized against inorganic phosphates): continuous elevation | Il6 transcription [5]: increased transcription | time of peak SphK1 transcription after EMAP II stimulation [6]: 3 h
